{"source": "patent US20100229252", "about": "“MEGANUCLEASE VARIANTS CLEAVING A DNA TARGET SEQUENCE FROM THE HUMAN HEMOGLOBIN BETA GENE AND USES THEREOF” (CELLECTIS, published 2010)", "binders": {"B1": {"name": "HBB5 (dsDNA)", "DNA 1": "CAAGACAGGTTTAAGGAGACCA", "DNA 2": "TGGTCTCCTTAAACCTGTCTTG"}}, "assay_in_all_cases": "cell_activity; CHO extrachromosomal LacZ assay", "key": {"[1]": {"target": "T1, I-CreI heterodimer HBB5.3_E3 / HBB5.4_A5 (Chlamydomonas reinhardtii, UniProt P05725;P05725 SEQ:1-167,SEQ:1-167)", "T1 chain 1": "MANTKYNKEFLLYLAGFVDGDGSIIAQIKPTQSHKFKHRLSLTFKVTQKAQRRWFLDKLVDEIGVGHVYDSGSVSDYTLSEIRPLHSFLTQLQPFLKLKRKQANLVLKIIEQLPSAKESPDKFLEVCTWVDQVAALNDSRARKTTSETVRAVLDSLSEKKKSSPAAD", "T1 chain 2": "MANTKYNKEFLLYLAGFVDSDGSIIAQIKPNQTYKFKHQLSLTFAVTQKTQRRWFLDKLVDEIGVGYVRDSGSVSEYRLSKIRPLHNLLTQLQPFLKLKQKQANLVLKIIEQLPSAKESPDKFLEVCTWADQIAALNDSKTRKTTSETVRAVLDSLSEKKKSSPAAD", "experimental": "(§1) Several I-CreI refined mutants able to efficiently cleave the HBB 5 target in yeast when forming heterodimers were identified in example 7. In order to validate and characterize the heterodimer displaying the maximal efficacy to cleave the HBB 5 sequence in CHO cells, the efficiency of combinations of mutants able to cut the HBB 5 target were tested using an extrachromosomal assay in mammalian cells.\n(§2) CHO cells were transfected with Polyfect® transfection reagent according to the supplier's protocol (QIAGEN). 72 hours after transfection, culture medium was removed and 150 μl of lysis/revelation buffer for β-galactosidase liquid assay was added (typically 1 liter of buffer contained: 100 ml of lysis buffer (Tris-HCl 10 mM pH7.5, NaCl 150 mM, Triton X100 0.1%, BSA 0.1 mg/ml, protease inhibitors), 10 ml of Mg 100×buffer (MgCl₂ 100 mM, β-mercaptoethanol 35%), 110 ml ONPG 8 mg/ml and 780 ml of sodium phosphate 0.1M pH7.5). After incubation at 37° C., OD was measured at 420 nm. The entire process was performed on an automated Velocity11 BioCel platform. Per assay, 150 ng of target vector was cotransfected with 12.5 ng of each HBB5 mutant expression vector (12.5 ng of vector encoding the mutant cleaving the palindromic HBB5.3 target and 12.5 ng of vector encoding the mutant cleaving palindromic HBB5.4 target)."}, "[2]": {"target": "T2, I-CreI heterodimer HBB5.3_E3 / HBB5.4_B1 (Chlamydomonas reinhardtii, UniProt P05725;P05725 SEQ:1-167,SEQ:1-167)", "T2 chain 1": "T1 chain 1", "T2 chain 2": "T1 chain 2 with I25V, R83K, L88F, A130V", "experimental": "as §1, §2"}, "[3]": {"target": "T3, I-CreI heterodimer HBB5.3_B2 / HBB5.4_A5 (Chlamydomonas reinhardtii, UniProt P05725;P05725 SEQ:1-167,SEQ:1-167)", "T3 chain 1": "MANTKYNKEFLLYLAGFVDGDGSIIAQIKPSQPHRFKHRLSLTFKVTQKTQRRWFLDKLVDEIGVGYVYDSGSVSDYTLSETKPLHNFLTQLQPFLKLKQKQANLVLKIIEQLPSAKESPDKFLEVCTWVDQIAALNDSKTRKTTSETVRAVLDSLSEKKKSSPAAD", "T3 chain 2": "T1 chain 2", "experimental": "as §1, §2"}, "[4]": {"target": "T4, I-CreI heterodimer HBB5.3_A2 / HBB5.4_B1 (Chlamydomonas reinhardtii, UniProt P05725;P05725 SEQ:1-167,SEQ:1-167)", "T4 chain 1": "T3 chain 1 with R35K", "T4 chain 2": "T1 chain 2 with I25V, R83K, L88F, A130V", "experimental": "as §1, §2"}, "[5]": {"target": "T5, I-CreI heterodimer HBB5.3_E3 / HBB5.4_A6 (Chlamydomonas reinhardtii, UniProt P05725;P05725 SEQ:1-167,SEQ:1-167)", "T5 chain 1": "T1 chain 1", "T5 chain 2": "T1 chain 2 with R83K, H86R, K97R, A130V, K140R", "experimental": "as §1, §2"}, "[6]": {"target": "T6, I-CreI heterodimer HBB5.3_B2 / HBB5.4_B1 (Chlamydomonas reinhardtii, UniProt P05725;P05725 SEQ:1-167,SEQ:1-167)", "T6 chain 1": "T3 chain 1", "T6 chain 2": "T1 chain 2 with I25V, R83K, L88F, A130V", "experimental": "as §1, §2"}, "[7]": {"target": "T7, I-CreI heterodimer HBB5.3_B2 / HBB5.4_A6 (Chlamydomonas reinhardtii, UniProt P05725;P05725 SEQ:1-167,SEQ:1-167)", "T7 chain 1": "T3 chain 1", "T7 chain 2": "T1 chain 2 with R83K, H86R, K97R, A130V, K140R", "experimental": "as §1, §2"}, "[8]": {"target": "T8, I-CreI heterodimer HBB5.3_A2 / HBB5.4_A5 (Chlamydomonas reinhardtii, UniProt P05725;P05725 SEQ:1-167,SEQ:1-167)", "T8 chain 1": "T3 chain 1 with R35K", "T8 chain 2": "T1 chain 2", "experimental": "as §1, §2"}, "[9]": {"target": "T9, I-CreI heterodimer HBB5.3_A3 / HBB5.4_B1 (Chlamydomonas reinhardtii, UniProt P05725;P05725 SEQ:1-167,SEQ:1-167)", "T9 chain 1": "T1 chain 1 with A50T", "T9 chain 2": "T1 chain 2 with I25V, R83K, L88F, A130V", "experimental": "as §1, §2"}, "[10]": {"target": "T10, I-CreI heterodimer HBB5.3_A3 / HBB5.4_A5 (Chlamydomonas reinhardtii, UniProt P05725;P05725 SEQ:1-167,SEQ:1-167)", "T10 chain 1": "T1 chain 1 with A50T", "T10 chain 2": "T1 chain 2", "experimental": "as §1, §2"}}, "note": "Substitutions are numbered along the chain they refer to.", "data": [{"binder": "B1", "values": [{"measurement": "activity", "setting": "[1]", "result": 0.46, "unit": "absorbance units"}, {"measurement": "activity", "setting": "[2]", "result": 0.37, "unit": "absorbance units"}, {"measurement": "activity", "setting": "[3]", "result": 0.5, "unit": "absorbance units"}, {"measurement": "activity", "setting": "[4]", "result": 0.42, "unit": "absorbance units"}, {"measurement": "activity", "setting": "[5]", "result": 0.71, "unit": "absorbance units"}, {"measurement": "activity", "setting": "[6]", "result": 0.33, "unit": "absorbance units"}, {"measurement": "activity", "setting": "[7]", "result": 0.54, "unit": "absorbance units"}, {"measurement": "activity", "setting": "[8]", "result": 0.78, "unit": "absorbance units"}, {"measurement": "activity", "setting": "[9]", "result": 0.2, "unit": "absorbance units"}, {"measurement": "activity", "setting": "[10]", "result": 0.86, "unit": "absorbance units"}]}]}
